From patent US20030105303A1 come the findings set out here.

Assay [1] has as its target DNAX Leukocyte Associated Immunoglobulin-like Receptor (DLAIR-1), the DX26 antigen / YE01 gene product (human). Nature of the assay: flow cytometry (FACScan) on CEM T cell tumor cells; PE goat-anti-mouse-IgG second step. For orientation: A flow cytometer gives signals particle by particle.
Assay [2] shares this target. Nature of the assay: flow cytometry (FACScan) on Peer T cell tumor cells; PE goat-anti-mouse-IgG second step.
Assay [3] has the same target. Nature of the assay: flow cytometry (FACScan) on HUT78 T cell tumor cells; PE goat-anti-mouse-IgG second step.
Assay [4] shares this target. Briefly: flow cytometry (FACScan) on Molt4 T cell tumor cells; PE goat-anti-mouse-IgG second step.
Assay [5] has the same target. Nature of the assay: flow cytometry (FACScan) on U937 myeloid tumor cells; PE goat-anti-mouse-IgG second step.
Assay [6] shares this target. Nature of the assay: flow cytometry (FACScan) on Jurkat T cell tumor cells; PE goat-anti-mouse-IgG second step.
Assay [7] has the same target. Briefly: flow cytometry (FACScan) on HL60 promyeloid tumor cells; PE goat-anti-mouse-IgG second step.

Regarding DX26 monoclonal antibody, the mean fluorescence intensity in assay [1] came to 92.7; in assay [2], 29.1; in assay [3] it was 25.8; in assay [4], 30.7; in assay [5] it was 49.5; in assay [6], 47.1. In addition, the mean fluorescence intensity in assay [7] worked out at 46.9.
